The source of these data is US20220185871A1.

The target of the test is Man9-V3 glycopeptide. Put plainly: BLI (Octet Red96), biotinylated Man9-V3 on streptavidin sensors, antibody in solution, bivalent avidity model.

Regarding DH270.6 (antibody), the Kd stood at 188 nM. Take DH270.1 (antibody): the Kd was determined as 331 nM.
